Measured values published in paper PMC6333238, “The biosynthetic implications of late-stage condensation domain selectivity during glycopeptide antibiotic biosynthesis” (Chemical Science, 2018).

System: T1, N[C@H](C(=O)O)c1cc(O)cc(O)c1
T1 construct: full-length final NRPS module C-A-PCP-X-TE, MBP fusion (pET-MBP-1c), Ni-NTA and SEC, E. coli, co-expressed with Tcp17; holo form (PCP loaded with phosphopantetheine by Sfp R4-4); with MbtH-like protein Tcp17
Test: coupled PPi-release A-domain assay (PPi-PFK/aldolase/TPI/GDH, NADH)
Assay type: biochemical, Actinoplanes teichomyceticus
Conditions: holo form, 0.5 mM ATP, 1 mM MgCl2, pH 7.4, 0.1 mM EDTA, enzyme 1 μM

Chain of Tcp12 (Actinoplanes teichomyceticus) (chain, as listed by the source): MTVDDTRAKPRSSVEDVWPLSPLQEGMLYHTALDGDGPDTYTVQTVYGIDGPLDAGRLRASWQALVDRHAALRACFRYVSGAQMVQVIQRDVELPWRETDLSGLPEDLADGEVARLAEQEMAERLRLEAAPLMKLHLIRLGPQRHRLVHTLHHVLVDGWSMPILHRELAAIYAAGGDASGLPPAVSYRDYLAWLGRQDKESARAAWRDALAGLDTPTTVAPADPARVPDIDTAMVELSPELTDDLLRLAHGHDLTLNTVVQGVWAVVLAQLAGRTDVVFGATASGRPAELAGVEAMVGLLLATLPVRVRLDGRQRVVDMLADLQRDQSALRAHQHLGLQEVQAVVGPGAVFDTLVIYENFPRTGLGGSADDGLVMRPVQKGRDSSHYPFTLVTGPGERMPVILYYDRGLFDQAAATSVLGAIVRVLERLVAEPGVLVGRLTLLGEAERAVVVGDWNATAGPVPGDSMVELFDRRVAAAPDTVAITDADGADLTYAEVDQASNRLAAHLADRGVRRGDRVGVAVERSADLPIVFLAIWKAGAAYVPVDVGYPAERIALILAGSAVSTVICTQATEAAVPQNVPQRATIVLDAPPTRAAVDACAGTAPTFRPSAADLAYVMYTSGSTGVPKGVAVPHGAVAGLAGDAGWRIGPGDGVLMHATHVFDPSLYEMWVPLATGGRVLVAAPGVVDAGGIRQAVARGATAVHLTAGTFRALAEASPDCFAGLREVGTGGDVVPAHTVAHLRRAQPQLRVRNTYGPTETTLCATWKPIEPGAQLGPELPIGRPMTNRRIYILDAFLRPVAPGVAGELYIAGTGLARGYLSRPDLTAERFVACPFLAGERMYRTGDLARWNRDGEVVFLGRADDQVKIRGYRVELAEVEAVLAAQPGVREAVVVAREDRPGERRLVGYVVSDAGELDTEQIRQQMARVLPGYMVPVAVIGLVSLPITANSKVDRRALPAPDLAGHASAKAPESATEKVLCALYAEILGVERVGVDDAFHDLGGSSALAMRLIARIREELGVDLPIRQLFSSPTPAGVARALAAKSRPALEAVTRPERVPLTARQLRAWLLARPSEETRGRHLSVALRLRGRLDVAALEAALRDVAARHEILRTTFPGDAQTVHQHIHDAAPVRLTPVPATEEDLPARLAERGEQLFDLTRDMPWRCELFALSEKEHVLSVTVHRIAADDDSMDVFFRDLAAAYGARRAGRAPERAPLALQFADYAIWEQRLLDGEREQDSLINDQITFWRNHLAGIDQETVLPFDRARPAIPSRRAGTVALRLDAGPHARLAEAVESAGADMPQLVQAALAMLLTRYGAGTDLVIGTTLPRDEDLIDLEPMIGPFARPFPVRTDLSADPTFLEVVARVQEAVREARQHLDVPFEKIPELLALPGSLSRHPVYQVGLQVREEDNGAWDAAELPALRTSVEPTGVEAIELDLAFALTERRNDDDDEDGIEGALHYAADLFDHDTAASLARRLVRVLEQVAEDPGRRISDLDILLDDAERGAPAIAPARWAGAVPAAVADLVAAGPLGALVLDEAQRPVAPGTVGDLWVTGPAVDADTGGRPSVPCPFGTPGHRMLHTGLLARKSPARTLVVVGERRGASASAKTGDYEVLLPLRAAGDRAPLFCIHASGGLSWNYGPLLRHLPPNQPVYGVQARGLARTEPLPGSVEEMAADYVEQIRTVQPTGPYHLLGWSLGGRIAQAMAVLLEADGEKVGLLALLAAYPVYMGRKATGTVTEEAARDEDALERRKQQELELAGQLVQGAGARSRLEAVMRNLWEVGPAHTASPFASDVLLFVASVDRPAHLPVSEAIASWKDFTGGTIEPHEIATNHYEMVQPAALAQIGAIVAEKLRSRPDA

Tcp12 (Actinoplanes teichomyceticus)
Km: 4 ± 0.1 µM | kcat: 0.01867 ± 0.000167 s⁻¹
